# Measured values from patent publication US9328143B2, “Peptide derivatives and use thereof as carriers for molecules in the form of conjugates” (VECT-HORUS, priority 2008, dated 2016).
# Where no end group is shown, it is not given here. [ ]: non-standard residue; d: D form. Rhodamine = not defined here
# Assays:
# [1] = In situ perfusion in mouse, transport across the blood-retinal barrier; type: in vivo
# Excerpt: (§1) This strategy of in situ brain perfusion normally carried out in the rat was adapted for mouse (Dagenais et al., 2000, J Cereb Blood Flow Metab., 20(2), 381-6) in order to broaden its application for evaluating the parameters of transport kinetics at the BBB and the blood-retinal barrier, in transgenic and KO mutant mice for the receptors, enzymes or transporters of active substances. It involves catheterisation of a carotid artery in anaesthetised OF 1 mice and ligature of some branches of this carotid artery (external, thyroidal, occipital) in order to specifically perfuse the internal carotid and pterygopalatine arteries, which are used to evaluate the uptake in the brain of the vectors and conjugates. The catheter makes it possible to replace general circulation by infusion with a well-controlled perfusate (bicarbonate buffer, plasma or blood) by passing by the carotid. Oxygenated Krebs bicarbonate buffer is first used to evaluate the capacities of the vectors and conjugates to gain access to the brain. After catheterisation of the carotid, endogenous blood flow is stopped by sectioning the ventricles of the heart in order to avoid the mixture of buffer with blood and elevation in blood pressure. The duration of the fixed flow-rate perfusion is monitored. The buffer perfusion can be extended up to 20 min, or up to 1 h in the presence of oxygen transporters (washed erythrocytes) for studies of receptor-mediated transport (RMT).
# In addition, the Kin of these various peptides, across the blood-retinal barrier (BRB), were also determined. Kin of SEQ ID NO: 11=1.2±0.2×10^−4 ml/s/g Kin of SEQ ID NO: 48=2.4±0.3×10^−4 ml/s/g Kin of SEQ ID NO: 73=0.0±0.0×10^−4 ml/s/g Kin of SEQ ID NO: 72=11.5±3.3×10^−4 ml/s/g Kin of SEQ ID NO: 74=1.8±0.2×10^−4 ml/s/g
# [2] = In situ brain perfusion in mouse, transport across the BBB; type: in vivo
# Procedure: The in situ brain perfusion technique (in adult male OF1 mouse) is used here to select the best vectors and to provide proof of their mechanism of action for their passage in the brain across the BBB.
# Radioactive peptides with high specific radioactivity (SRA, up to 100 Ci/mmol) are prepared by a strategy of acylation of the N-term amine function by tritiated propionic (or propanoic) anhydride or tritiated N-propionyl-succinimide (NPS).
# The tritiation reaction of peptide vectors SEQ ID NO: 11 and SEQ ID NO: 48 in the N-term position by propionylation is carried out in DMF (1 mg peptide in 100 μl to 450 μl according to solubility) by adding 0.1 equivalent of tritiated NPS for 5 min at room temperature, then 0.9 equivalent of cold NPS (non-tritiated) for 1 h, and then a new equivalent of cold NPS for 5 h. The reaction medium is then left at 4° C. overnight and purified the following day by HPLC. The SRA for each tritiated peptide is between 5 Ci/mmol and 10 Ci/mmol (theoretically on the order of 7.7 Ci/mmol). The total quantity of radioactivity prepared by synthesis is between 600 μCi and 950 μCi.
# The techniques briefly summarised below were developed to study the distribution in the brain of active substances and, in particular, the role of the BBB and, more particularly, of LDLR in the penetration of these molecules in the brain. In situ brain perfusion techniques are among the most technically demanding and the most difficult to perform in the mouse. However, in situ brain perfusion (like in vitro models) enables total control of the composition of the artificial perfusate in order to maintain the cells and vascularisation of the brain under normal physiological and anatomical conditions within the animal, without the disrupting factor of systemic distribution.
# as §1
# The study of peptide vector SEQ ID NO: 11 made it possible to determine its brain transport or transfer coefficient (Kin). The duration of brain perfusion for these experiments is 5 min with a perfusate flow rate of 2 ml/min. Thus, the calculation of the Kin (volume of distribution over time of brain perfusion) of peptide vector SEQ ID NO: 11 gives a value of 3.5±0.2×10^−4 ml/s/g.
# hLDLR [3] = biological target: T1, hLDLR (Homo sapiens, UniProt P01130); assay: Displacement of SEQ ID NO: 11/S-Tag on CHO-hLDLR-RFP cells (FRET); type: binding; design: expressed in transfected cells; settings: 10 μM peptide vs 10 μM SEQ ID NO: 11/S-Tag
# Procedure: For the FRET approaches, cells are washed twice with 2 ml PBS and then incubated for 1 h at 37° C. with 250 μl peptide solution. They are again washed twice with 2 ml PBS and then twice with 1 ml PBS, and then scraped in 1 ml PBS and centrifuged for 5 min at 1,250 rpm. The supernatant is then aspirated and the cell pellet is lysed in 80 μl PBS+0.1% Triton X100. Twenty μl of each cell lysate are analysed by measuring fluorescence emission after the FRET reaction.
# A study of the structure/activity (affinity) relationships was carried out on peptide vector SEQ ID NO: 11 via the alanine scanning (Ala-scan) technique and by N- and C-term truncation in order to determine the importance of each of the 15 constitutive amino acids of this peptide. […] Briefly, the CHO-hLDLR-RFP cells used are adherent and at confluence.
# They are grown in six-well plates. Three wells of cells are used per condition.
# A solution containing 10 μM peptide SEQ ID NO: 11/S-Tag is prepared in HamF12-1% BSA culture medium. To this solution is added 10 μM peptide resulting from the Ala-scan to be evaluated (competition). […]
# [4] = system: bovine brain microvascular endothelial cells (BBMEC); assay: Binding and/or internalisation in endothelial cells of in vitro BBB model; type: cell-based; settings: rhodamine fluorescence after cell lysis, 2 h, 5 h, 24 h
# Procedure: The medium is changed twice per week. […] This BBMEC medium is changed three times per week.
# This analysis was carried out by lysis of endothelial cells at various times (2 h, 5 h, 24 h), and by fluorimetric measurements of the quantity of fluorescence (rhodamine) associated with the cells (membrane and cytoplasmic compartments obtained by centrifugation of these cells after lysis).
# hLDLR [5] = biological target: T1, hLDLR; assay: Binding and endocytosis of tracer-conjugated synthesised peptides in CHO-hLDLR-GFP cells (fluorescence, immunocytochemistry); type: cell-based; design: expressed in transfected cells; settings: CHO-LDLR-GFP cells, tracer-conjugated peptide, vs control peptides
# Excerpt: GFP fluorescence is visible in green (A1, B1 and C1); that related to peptides, visualised by rhodamine or by binding of an anti-S-Tag antibody coupled to Alexa594 is visible in red (A2, B2 and C2); and the superimposing of red and green stains is visible in yellow/orange (A3, B3 and C3). […] S-Tag (a 15 amino acid peptide derived from sequence 1-15 of bovine pancreatic ribonuclease A) on the one hand can be recognised by an anti-S-Tag antibody for immunocytochemistry or FACS approaches, and on the other hand can reconstitute enzymatic activity by binding with ribonuclease S-protein (C-term portion, amino acids 21-124) in tests of activity in vitro using the FRETWorks S-Tag assay kit (Novagen 70724-3). The ribonuclease thus activated digests an RNA substrate releasing a masked fluorescent agent visualised by FRET (fluorescence resonance energy transfer) and quantified in a 96-well plate in a Beckmann spectrofluorimeter. For these FRET experiments, control CHO cells and GFP fused in the C-term position with hLDLR and mLDLR, which generates strong background noise at the wavelengths used for FRET, was replaced by red fluorescent protein (RFP). The stable cell lines generated for the FRET experiments are thus CHO-RFP and CHO-hLDLR-RFP. Experiments involving the incubation of peptides on various cells expressing hLDLR were performed.
# [6] = system: bovine brain microvascular endothelial cells (BBMEC); assay: Passage (Pe) across in vitro BBB model
# Procedure: The potential toxic effects of peptides on endothelial cells, the binding/accumulation of peptides in these cells, and the passage by transcytosis of peptides were evaluated on in vitro BBB models. The cells necessary to set up the model (co-culture of endothelial cells from brain microvessels and astrocytes) are bovine cells (bovine brain microvascular endothelial cells, BBMEC) sold by Cellial Technologies (Lens, France).
# The in vitro BBB model brings into play a co-culture of BBMECs and astrocytes. […]
# The culture medium of the lower chamber is collected at various times and fluorescence quantified by fluorimetric analysis. The results are expressed as endothelial surface permeability (Pe) in units of 10^−3 cm/min. […] Transendothelial electrical resistance (TEER), measured with an ohmmeter and expressed in ohm·cm^2, also makes it possible to measure BBB integrity in vitro during tests of passage across the BBB. […]
# This analysis is carried out by measuring by fluorimetry the quantity of fluorescence accumulated in the receiver wells at various times (1 h, 4 h, 24 h). The integrity of the BBB in the various wells analysed was evaluated by simultaneous measurement of the level of LY that passes from one compartment to the other as a function of time.
# hLDLR [7] = biological target: T1, hLDLR; assay: FACS on HUVEC: competition between peptides expressed by bacterial viruses and natural ligand LDL; type: binding; design: endogenous in cells; host or cells: HUVEC (human umbilical vein endothelial cells), not genetically modified
# Excerpt: Evaluation by FACS on HUVEC of competition between the peptides expressed by the bacterial viruses with affinity for LDLR and its natural ligand LDL.
# I—Graph representing the percentage of shift of the fluorescence signal in zone Q2 of graphs A-H obtained by FACS. […] Adding LDL leads to an 85% loss of signal in Q2 in […], indicating competition between the bacterial virus corresponding to peptide sequence SEQ ID NO: 21 and LDL at the site where LDL binds to hLDLR. The equally strong signal in Q2 of the bacterial viruses that express peptide SEQ ID NO: 11 (shift greater than 70% compared to control bacterial viruses) is only slightly shifted (17%) by adding LDL.
# First, it is shown that the binding rate of bacterial viruses expressing peptides with affinity for hLDLR (SEQ ID NO: 21 and SEQ ID NO: 11 are used here as examples) is proportional to the level of LDLR expression by HUVEC. FACS experiments carried out in the presence of LDL made it possible to show and quantify a strong shift (85%) of LDL by linear peptides (for example SEQ ID NO: 21), but a small shift (17%) by cyclic peptides (for example SEQ ID NO: 11).
# hLDLR [8] = biological target: T1, hLDLR; assay: FACS: binding of bacterial viruses expressing peptides to HUVEC; design: endogenous in cells; host or cells: HUVEC (human umbilical vein endothelial cells), not genetically modified
# Procedure: Evaluation by FACS of the interaction between HUVEC and two clones of bacterial viruses expressing peptides, one cyclic (SEQ ID NO: 11), the other linear (SEQ ID NO: 21), with affinity for hLDLR, compared with control bacterial viruses not expressing peptides with affinity for this receptor.
# Qualitative immunocytochemistry was supplemented with quantitative flow cytometry (FACS) with suspended cells (GFP cell line, CHO-hLDLR-GFP cell line, human fibroblasts, HUVEC). These cells were grown in culture medium, mechanically unbound and dissociated (without trypsin), centrifuged, resuspended and incubated in the presence of various bacterial virus clones and anti-LDLR antibody, for 20 min at 4° C. in order to avoid any process of endocytosis. After washings, the bacterial viruses bound to cells were visualised with anti-viral envelope protein antibody. FACS analyses were carried out with a FACSCanto system (Becton Dickinson) using BD FACSDiva software. The number of positive cells was standardised with 5,000 events for each test. The results were expressed in arbitrary units of fluorescence.
# FIGS. 9, 10, 11 correspond to the results obtained for peptides SEQ ID NO: 11, SEQ ID NO: 12 and SEQ ID NO: 21 on cells of the CHO-hLDLR-GFP cell line (FIG. 9), human fibroblasts (FIG. 10) and HUVEC (FIG. 11).
# [9] = mouse in situ brain perfusion, BBB, 5 min, perfusate flow rate 2 ml/min, tritiated peptide
# T1 sequence (P01130 22-860): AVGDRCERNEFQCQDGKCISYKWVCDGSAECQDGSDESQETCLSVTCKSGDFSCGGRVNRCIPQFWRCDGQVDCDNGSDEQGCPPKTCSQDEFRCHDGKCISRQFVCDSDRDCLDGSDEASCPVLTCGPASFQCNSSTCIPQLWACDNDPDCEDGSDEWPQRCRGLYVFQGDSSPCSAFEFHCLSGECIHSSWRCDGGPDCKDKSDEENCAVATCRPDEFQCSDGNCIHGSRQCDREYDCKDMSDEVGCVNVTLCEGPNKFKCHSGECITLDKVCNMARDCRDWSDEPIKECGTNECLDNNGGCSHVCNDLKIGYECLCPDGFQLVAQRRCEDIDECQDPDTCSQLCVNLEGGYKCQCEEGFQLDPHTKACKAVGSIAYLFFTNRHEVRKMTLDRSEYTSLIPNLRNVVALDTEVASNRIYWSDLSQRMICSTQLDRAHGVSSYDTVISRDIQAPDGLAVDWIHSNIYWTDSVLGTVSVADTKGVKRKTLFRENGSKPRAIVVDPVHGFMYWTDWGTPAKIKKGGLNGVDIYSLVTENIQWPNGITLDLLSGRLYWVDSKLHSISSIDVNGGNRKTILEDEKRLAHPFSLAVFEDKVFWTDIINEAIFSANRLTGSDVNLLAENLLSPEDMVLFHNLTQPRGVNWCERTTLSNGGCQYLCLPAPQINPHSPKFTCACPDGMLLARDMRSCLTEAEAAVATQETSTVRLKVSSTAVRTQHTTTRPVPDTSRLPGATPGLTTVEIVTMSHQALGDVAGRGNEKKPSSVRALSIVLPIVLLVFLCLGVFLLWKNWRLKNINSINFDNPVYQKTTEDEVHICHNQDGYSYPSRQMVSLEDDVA
substance,measurement,setting,value
(D)-CMPRLRGC [SEQ ID NO: 48],Kin across the blood-retinal barrier (BRB),"[1]; mouse, in vivo",2.4±0.3 ×10^−4 ml/s/g
same,Kin (brain transport or transfer coefficient),"[2]; mouse, in vivo",4.8±0.4 ×10^−4 ml/s/g
same,"improvement of passage in the brain, factor vs SEQ ID NO: 11","[2]; mouse, in vivo",1.37
same,in vitro affinity for LDLR (displacement of SEQ ID NO: 11/S-Tag),hLDLR [3],excellent affinity
"CMPRC [SEQ ID NO: 73, control peptide for the brain perfusion study, reference compound]",Kin across the blood-retinal barrier (BRB),"[1]; mouse, in vivo",0.0±0.0 ×10^−4 ml/s/g
same,Kin (brain transport or transfer coefficient),"[2]; mouse, in vivo",1.5±0.2 ×10^−4 ml/s/g
SEQ ID NO: 1 conjugated with rhodamine: peptide SEQ ID NO: 1 conjugated in the C-term position with rhodamine via a spacer of three Gly residues (HLDCMPRGCFRNGGG-Rhodamine; cysteine pairing not given here; reading uncertain),binding and/or internalisation rate in endothelial cells,[4],more affinity for endothelial cells in an in vitro BBB model than the control peptide
same,binding to cells expressing hLDLR,hLDLR [5],bind well to CHO-LDLR-GFP cells
same,endocytosis / intracellular accumulation,hLDLR [5],incorporated by endocytosis
same,endocytosis / intracellular accumulation,hLDLR [5]; listed as SEQ ID NO: 1/rhodamine,high levels of intracellular staining
same,rate of passage (Pe) across in vitro BBB,[6]; 1 h and 4 h,cannot be distinguished from nonspecific or paracellular passage
same,rate of passage (Pe) across in vitro BBB,[6]; 24 h,quite significantly higher than that of the control peptide
TPSAHAMALQSLSVG [SEQ ID NO: 21],effect of LDL on binding of peptides expressed by bacterial viruses,"hLDLR [7]; FACS, LDL added",strongly decreases the binding
same,loss/shift of signal in Q2 on adding LDL,"hLDLR [7]; peptide expressed by bacterial viruses, in the presence of LDL",85%
same,shift of the signal in Q2 (FACS),"hLDLR [8]; peptide expressed by bacterial virus clone, vs control bacterial viruses",significant shift
same,percentage of shift of the fluorescence signal in zone Q2,"hLDLR [8]; peptide expressed by bacterial viruses, without LDL",more than 55.8%
"Y-(D)-AGFLR (Y[dA]GFLR) [SEQ ID NO: 74, analgesic therapeutic peptide, dalargin, reference compound]",Kin across the blood-retinal barrier (BRB),"[1]; mouse in situ perfusion, BRB",1.8±0.2 ×10^−4 ml/s/g
same,Kin (brain transport or transfer coefficient),[2]; [9],0.9±0.1 ×10^−4 ml/s/g
Y-(D)-AGFLRGFAL-(D)-CMPRLRGC (Y[dA]GFLRGFAL[dC]MPRLRGC; cysteine pairing not given here) [SEQ ID NO: 72],Kin across the blood-retinal barrier (BRB),"[1]; mouse in situ perfusion, BRB",11.5±3.3 ×10^−4 ml/s/g
same,"BRB crossing, factor vs non-vectorised free dalargin (SEQ ID NO: 74)","[1]; ratio of Kin, BRB",6.39
same,Kin (brain transport or transfer coefficient),[2]; [9],19.6±3.9 ×10^−4 ml/s/g
same,"passage in the brain, factor vs non-vectorised free dalargin (SEQ ID NO: 74)","[2]; ratio of Kin, BBB",21.78
